In experiment [1] the target is each of the PTHR1 receptor constructs that retained the ECD. In words: flow cytometry on cells; dose response of staining with VHH-Alexafluor647 (median fluorescent intensity); cells in PBS, 1 h on ice; curves without plateau constrained to the plateau seen with other VHHs.
Experiment [2] concerns the target PTHR1_(YFPΔECD). The description is as above.

B1: VHH_(PTHR) (VHH)
VHH: EVQLVESGGGLVQAGGSLRLSCAASGNIFANNIMGWYRQPPGKEREFVAHVSHDGDSMYAVSVKGRFAISRKDATNLYLQMNSLKPEDTAIYFCRLLNIPTQGRMEGFWGQGTQVTVSS
In the case of B1, the EC50 in experiment [1] was in the range of 100 to 200 nM.

B2: VHHGFP (VHH)
VHH: QVQLQESGGALVQPGGSLRLSCAASGFPVNRYSMRWYRQAPGKEREWVAGMSSAGDRSSYEDSVKGRFTISRDDARNTVYLQMNSLKPEDTAVYYCNVNVGFEYWGQGTQVTVSS
Turning to B2, the EC50 in experiment [2] was under 10 nM.

For orientation: EC50 means the concentration that produces a half-maximal response. Lower therefore signals an effect from little substance.

The values above are taken from article PMC7190724, “Improved GPCR ligands from nanobody tethering” (Nature Communications, 2020).
